Laboratory results from PMC9170038.

Target: T1, MS2 coat protein, dlFG mutant (Escherichia phage MS2, UniProt P03612, del68-81insG)
Assay: 4 mM Mg2+; L-tryptophan 2.4 mM; RNA-MaP array; 100 mM Tris-HCl pH 7.5, 80 mM KCl, 4 mM MgCl2, 0.1 mg/mL BSA, 1 mM DTT, 0.01 mg/mL yeast tRNA, 0.01% Tween-20; protein 1.5 nM to 3 uM; 37 C (Table S3)
Conditions: chain copies: 2; label: tethered by stalled RNA polymerase

Molecule | Kd [nM]
Eterna 7733368 (Same State - Tryptophan B) (ssRNA) RNA: GGGUACAUCGCGGCCGCCACUUAUGUAAAUACAUGAGGAUCACCCAUGUCGAUGGAGACAUCGGUAAGGACCGGGUGAUGUACCG | 19.3
Eterna 7612216 (Same State - Tryptophan B) (ssRNA) RNA: GCUAGGUCAUCGGCCGCCACUAACGACGGUUCCAACAUGAGGAUCACCCAUGUGCCACAUGCGCAUAGGACCGGGAUGACCUAGC | 21

Target: T1, MS2 coat protein, dlFG mutant
Assay: 4 mM Mg2+; no ligand; RNA-MaP array; 100 mM Tris-HCl pH 7.5, 80 mM KCl, 4 mM MgCl2, 0.1 mg/mL BSA, 1 mM DTT, 0.01 mg/mL yeast tRNA, 0.01% Tween-20; protein 1.5 nM to 3 uM; 37 C (Table S3)
Conditions: chain copies: 2; label: tethered by stalled RNA polymerase

Molecule | Kd [nM]
Eterna 9759 (Exclusion 4) (ssRNA) RNA: GUCGAGUGAGGAUAUGGUGAGUAGUGCCUGAGCGCUGCUCACCAGAAGGCACAUGAGGAUCACCCAUGUAUAGC | 16.7
Eterna 6420697 (Small Loop Exclusion NG 3) (ssRNA) RNA: AUCGUUGACUGGACGAGAAUAGGGCAGGAUAUACAUGAGGAUCACCCAUGUGAAGCACGAAAGAGGUAGAAGGGCCCACGUCAU | 16.1
Eterna 7681766 (Exclusion - Tryptophan A) (ssRNA) RNA: UGUGAACAAAAGUAGAGUGGACCACUAUAGCGAGGACCGGUACGGCCGCCACUCGUAUAUAAAUUCAGUGAUGUUGAAAAGAGCU | > 3000
Eterna 7684249 (Exclusion - Tryptophan B) (ssRNA) RNA: UUUAUAAUGUCGGCCGCCACUGGAUUAAUAUUUGUAUAAUCUAGUUCUGAGUGAUGUUUAGAGUCCAGGACCGGGACAUUUGUUA | > 3000
Eterna 15621 (Same State 1) (ssRNA) RNA: GCAUCACAUGAGGAUCACCCAUGUCUUCGGAGCGGAGGAUAUGGUCACUGUAAACAGUGGCCAGAAGGCUGGAUGC | 32.4
Eterna 6049957 (Exclusion 6) (ssRNA) RNA: CUGAGUAGUCAGGAUAUGUGGUACAAAAGUACUGCAGAAGGGAUUACAUGAGGAUCACCCAUGUUUUCUUCAUG | 52
Eterna 6457817 (Inverted Small Loop Same State NG 3) (ssRNA) RNA: GCGUAAUAGGUGUAGCUAGUCGUUCAAGAAGGGUGAAGAACAUGAGGAUCACCCAUGUGGUCUAUACAGGAUAUUGAUAUACGC | 607
Eterna 6429368 (Inverted Exclusion NG 2) (ssRNA) RNA: AUGUCUUAGUAGAAGGGACAUCGGCUGGUAAGCAUCAUCUCCUUCUCACAUGAGGAUCACCCAUGUCAGGAUAUACUAAGAUAC | 12.8
Eterna 7691696 (Same State - Theophylline B) (ssRNA) RNA: UGUCAUUGGUCUGAUACCAGAAGAUAAUCUGGAGUGAUGUUCCAAGUACGACAAAGUCGCUUCCCUUGGCAGCAGACCGAUGACU | > 3000
Eterna 6002686 (Brourd's mod of Exclusion 4) (ssRNA) RNA: UAACAAAUUGUCAGGAUAUCAGUCCCGGCCCAGAUUGAGAAGGGACAUGAGGAUCACCCAUGUAUGAUUCUCAG | 93.5
Eterna 7727988 (Exclusion - Theophylline B) (ssRNA) RNA: GGGAACUCUUACGAUACCAGCCGGAGUGAUGUUCCGCGCUUGGACGUAGUAACCCGCACCGGCCCUUGGCAGCGUGGAUCUUAUA | > 3000
Eterna 6056927 (Brourd's mod of Exclusion 4) (ssRNA) RNA: GGUCCUUCUGUUAGGAUAUGCUAUGGGCUUCCGCAGUAGAAGGAACAUGAGGAUCACCCAUGUCCGAUGCCGUA | 67.5
Eterna 6443759 (Same State NG 2) (ssRNA) RNA: AUUAUAAUUGAAGGAUAUCUAUAUCCAACAUGAGGAUCACCCAUGUUGAGGAUCACCCAUGUAAAGGAGAAGGUUAAUUAUAAU | 101
Eterna 5958224 (Same State NG 3) (ssRNA) RNA: CGAGGCGUACAUGAGGAUCACCCAUGUACCUAACAACAAAGCAAGGAUAUCCUGGCUAUAAUACAGGAGAAGGUGUGGUCCUUA | 135
Eterna 6411926 (Small Loop Same State NG 1) (ssRNA) RNA: GUAUUUAGAUAAGGAUAUAAGUCUAUGACAUGAGGAUCACCCAUGUGUGUCUUAGAAGGUAUUUGGGUAAUAUUGUUACAGUAA | 44.2
Eterna 7747481 (Same State - Arginine B) (ssRNA) RNA: GCCGUAGAUUGAAGGAGCGACAUAAACGAUGUUCUGGUAGUGAUGUUACCUUAGCAGGCAUGUCAGGUAGGUCGCAAUCUACGGC | > 3000
Eterna 7684615 (Exclusion - Tryptophan A) (ssRNA) RNA: AAAAUUGCGGUCGAUAGAACUUUUUGCUUACGAGGACCGGUACGGCCGCCACUCGAGUCAAGUGAUGUUUGAUUUUCUAUUAUUA | > 3000
Eterna 6136258 (Same State NG 2) (ssRNA) RNA: UAAUCUCAGAUAGGAUAUAUAGGAUAACUUAAGACCUAACAUGAGGAUCACCCAUGUGAUUAUUCGUAGAAGGAUCAUUGACCC | 162
Eterna 1282 (Exclusion - Tryptophan B) (ssRNA) RNA: GGAUUGCGUUCGGCCGCCACUAGACUACAUUCCACGCCCGACCCGUUUUUAAGUGAUGUUUAAACUAGGACCGGGAACCGAUUUC | > 3000
Eterna 7724662 (Same State - FMN B) (ssRNA) RNA: GUAUCGCUAGGAGGAUAUUUCAAAUAACAAAUAAAUGGUUAUACGGAGUGAUGUUCCGAUUUACGGAAAGAAGGCCUAGUGAUAC | > 3000
Eterna 6389671 (Inverted Exclusion NG 2) (ssRNA) RNA: ACUUGUAAGUAGAAGGUAGUCAUUAUAUUAAUCAUGUAAACAUGAGGAUCACCCAUGUAGAGUACUAAGGAUAUACAUCGAUAG | 15.2
Eterna 7672552 (Same State - Tryptophan A) (ssRNA) RNA: UAAGAAUAAGUAGCAGUGAUGUUGCUACUACGAGGACCGGUACGGCCGCCACUCGAGUCCUCGAAACAUCACUGAACGAGGAAUA | > 3000
Eterna 7730944 (Same State - Tryptophan A) (ssRNA) RNA: UAAAACGCUUGAAUAACAAGCGAAAAUUCGCGAGGACCGGUACGGCCGCCACUCGCUAACUGCGAGUGAUGUUCGAUAAUAAAAU | > 3000
Eterna 6108893 (Exclusion NG 1) (ssRNA) RNA: GCGUAAAAUGUAGGAUAUGACACAGGAAACUGGUCAGAAGGACAUGAGGAUCACCCAUGUAAAAUGUUCAAGAAUAACUCAUGC | 123

Test system: Theophylline aptamer, RNA-MaP condition construct (RNA, aptamer) GGAAAGGCGAGGAUACCAGCGUUCGCGCCCUUGGCAGCCUCGCCAAAGAAACAACAACAACAAC
Assay: DMS chemical mapping
Conditions: 80 mM KCl, 4 mM MgCl2; 100 mM Tris-HCl, pH 7.5, 37 °C

Kd | Molecule
13.11 ± 9.21/-4.86 μM | Cn1c(=O)c2[nH]cnc2n(C)c1=O

Target: T1, MS2 coat protein, dlFG mutant
Assay: 4 mM Mg2+; FMN 200 uM; RNA-MaP array; 100 mM Tris-HCl pH 7.5, 80 mM KCl, 4 mM MgCl2, 0.1 mg/mL BSA, 1 mM DTT, 0.01 mg/mL yeast tRNA, 0.01% Tween-20; protein 1.5 nM to 3 uM; 37 C (Table S3)
Conditions: chain copies: 2; label: tethered by stalled RNA polymerase

Molecule | Kd [nM]
Eterna 5956827 (Exclusion NG 2) (ssRNA) RNA: UUUGUUUUGCAAGGAUAUGUUUAAUUUUAGUUUCCUUACACAUGAGGAUCACCCAUGUUAUACUUACAGAAGGUGCGUAAUUUU | 94
Eterna 6063666 (Exclusion 4) (ssRNA) RNA: UAUGUGUCAGGAUAUUGUUAAUUUAGUUGUUUGUAUUAGUUCGAGAAGGGACAUGAGGAUCACCCAUGUUGUUU | 31.1

Test system: Theophylline aptamer, Light-up construct (RNA, aptamer) GGGAACGUCUCCGAGUAGGAGACGAAGGGAGAGUGGCAGCUUACAACCUGAAGGACGGGUCCCCAGUAAUAAUGAUACCAGGAACAAAAGUUCCCCUUGGCAGCAUCUGGGUUGAGUAGAGUGUGAGCAGGAAGUGGGCUGUUGCUUUUCCAAGCUUAUCGAGUAGAUAAGCAAAAAGAAACAACAACAACAAC
Assay: DMS chemical mapping
Conditions: 5 mM MgCl2, 1x PBS, pH 6.1, 24 °C

Kd | Molecule
239.54 ± 161.15/-96.27 μM | Cn1c(=O)c2[nH]cnc2n(C)c1=O

Target: T1, MS2 coat protein, dlFG mutant
Assay: 4 mM Mg2+; miR-208a RNA 100 nM (AU…UUGU); RNA-MaP array; 100 mM Tris-HCl pH 7.5, 80 mM KCl, 4 mM MgCl2, 0.1 mg/mL BSA, 1 mM DTT, 0.01 mg/mL yeast tRNA, 0.01% Tween-20; protein 1.5 nM to 3 uM; 37 C (Table S3)
Conditions: chain copies: 2; label: tethered by stalled RNA polymerase

Molecule | Kd [nM]
Eterna 13224 (Sensor for hsa-mir-208a) (ssRNA) RNA: ACCCAAAGUAUAUGGGAACAAGCUUUUUAACAUGAGGAUCACCCAUGUGCUCGUCUUAUAAGCAGUCGAAAGACUGC | 17.1
Eterna 11920 (Sensor v3, turn-off variant 2) (ssRNA) RNA: UUUAAACUUACAAUCUUCGCUGGCAUGCUUGUGCCAGCUACAUGAGGAUCACCCAUGUUUUUUGCUCGUCUUAUUCU | 95

Target: T1, MS2 coat protein, dlFG mutant
Assay: 4 mM Mg2+; theophylline 2 mM; RNA-MaP array; 100 mM Tris-HCl pH 7.5, 80 mM KCl, 4 mM MgCl2, 0.1 mg/mL BSA, 1 mM DTT, 0.01 mg/mL yeast tRNA, 0.01% Tween-20; protein 1.5 nM to 3 uM; 37 C (Table S3)
Conditions: chain copies: 2; label: tethered by stalled RNA polymerase

Molecule | Kd [nM]
Eterna 7623315 (Exclusion - Theophylline A) (ssRNA) RNA: AUUAUCAUGGUCAUAUAUAUUUCGUCAGAUACCAGACUAGAUAUAGUCCCUUGGCAGCUGUUACAUGAGGAUCACCCAUGUUAUA | 45.8
